This series deals with NX4-NS20-NX1 (X-NS20-X) (designed (from TALE PthXo1)). Nature of the series: BLI. The conditions noted are these: BLI: 25 mM Tris (pH 7 for NS20, pH 8 for NS14), 150 mM NaCl, 10 mM MgCl2, 0.5% BSA, 0.5% Tween-20, 25 C, EMSA: 1% agarose, 1x TAE, 110 V. (Mobility shift assays separate free from complexed probe on a gel.)

A word on the pKd: it is the Kd on a negative log10 scale, so that one unit is a factor of ten.

pKd: −log10 of the molar value. Where only a bound is given, the exact number is not on record here.

The sequence “AAAAAAATCTAGCAACCTCAAACAGACACCAGA (double strand) [X-NS20-X target]” gave a pKd of 7.35.
Turning to “AAAAAAATCAGACCGACATCTAATCCGCAACGA (double strand) [X-NS20-X random]”, the negative-log Kd (pKd) (10 mM MgCl2, stated weak interactions, Kd > ~700 nM) was below 6.15.

These data come from article PMC13381548.
